# Test results from US20030219427A1, “TPL-2/COT kinase and methods of use” (priority 1998, published 2003).
# * marks the point of attachment. Biotin = O=C1N[C@H]2[C@H](CS[C@H]2CCCCC(=O)*)N1
# T1: recombinant p105 541-802 (Homo sapiens (Human), UniProt P19838 540-801)
# T1 construct: Made in E. coli as a GST fusion and cleaved from GST
# T1 sequence: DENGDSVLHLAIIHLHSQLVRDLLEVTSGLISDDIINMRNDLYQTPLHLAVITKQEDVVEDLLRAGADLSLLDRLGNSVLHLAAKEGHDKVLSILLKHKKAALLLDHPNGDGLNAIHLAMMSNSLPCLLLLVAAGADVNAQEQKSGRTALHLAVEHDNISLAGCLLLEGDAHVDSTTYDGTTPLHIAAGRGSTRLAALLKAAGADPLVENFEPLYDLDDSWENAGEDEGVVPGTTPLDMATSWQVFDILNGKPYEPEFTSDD
# T2: HA-p105(369-969) (Homo sapiens (Human), UniProt P19838 368-968)
# T2 construct: also called p105?N
# T2 sequence: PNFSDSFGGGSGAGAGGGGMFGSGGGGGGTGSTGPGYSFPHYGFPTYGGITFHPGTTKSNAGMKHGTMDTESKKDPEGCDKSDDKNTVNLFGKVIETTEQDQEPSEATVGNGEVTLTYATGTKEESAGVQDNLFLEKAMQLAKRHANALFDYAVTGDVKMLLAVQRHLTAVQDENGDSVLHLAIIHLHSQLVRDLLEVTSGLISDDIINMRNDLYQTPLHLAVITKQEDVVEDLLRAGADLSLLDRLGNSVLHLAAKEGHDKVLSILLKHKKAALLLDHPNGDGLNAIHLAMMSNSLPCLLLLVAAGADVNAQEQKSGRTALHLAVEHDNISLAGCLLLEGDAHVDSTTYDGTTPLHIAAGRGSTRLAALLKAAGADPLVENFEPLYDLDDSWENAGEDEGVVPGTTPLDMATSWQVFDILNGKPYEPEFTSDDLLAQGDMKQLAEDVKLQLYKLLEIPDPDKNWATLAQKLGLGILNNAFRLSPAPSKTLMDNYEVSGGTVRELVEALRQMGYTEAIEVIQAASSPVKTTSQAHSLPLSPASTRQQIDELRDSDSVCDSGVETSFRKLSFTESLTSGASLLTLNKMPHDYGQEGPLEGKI
# T3: endogenous p105 (mouse 3T3 fibroblasts) (mouse, UniProt P25799 1-971)
# T3 sequence (looked up): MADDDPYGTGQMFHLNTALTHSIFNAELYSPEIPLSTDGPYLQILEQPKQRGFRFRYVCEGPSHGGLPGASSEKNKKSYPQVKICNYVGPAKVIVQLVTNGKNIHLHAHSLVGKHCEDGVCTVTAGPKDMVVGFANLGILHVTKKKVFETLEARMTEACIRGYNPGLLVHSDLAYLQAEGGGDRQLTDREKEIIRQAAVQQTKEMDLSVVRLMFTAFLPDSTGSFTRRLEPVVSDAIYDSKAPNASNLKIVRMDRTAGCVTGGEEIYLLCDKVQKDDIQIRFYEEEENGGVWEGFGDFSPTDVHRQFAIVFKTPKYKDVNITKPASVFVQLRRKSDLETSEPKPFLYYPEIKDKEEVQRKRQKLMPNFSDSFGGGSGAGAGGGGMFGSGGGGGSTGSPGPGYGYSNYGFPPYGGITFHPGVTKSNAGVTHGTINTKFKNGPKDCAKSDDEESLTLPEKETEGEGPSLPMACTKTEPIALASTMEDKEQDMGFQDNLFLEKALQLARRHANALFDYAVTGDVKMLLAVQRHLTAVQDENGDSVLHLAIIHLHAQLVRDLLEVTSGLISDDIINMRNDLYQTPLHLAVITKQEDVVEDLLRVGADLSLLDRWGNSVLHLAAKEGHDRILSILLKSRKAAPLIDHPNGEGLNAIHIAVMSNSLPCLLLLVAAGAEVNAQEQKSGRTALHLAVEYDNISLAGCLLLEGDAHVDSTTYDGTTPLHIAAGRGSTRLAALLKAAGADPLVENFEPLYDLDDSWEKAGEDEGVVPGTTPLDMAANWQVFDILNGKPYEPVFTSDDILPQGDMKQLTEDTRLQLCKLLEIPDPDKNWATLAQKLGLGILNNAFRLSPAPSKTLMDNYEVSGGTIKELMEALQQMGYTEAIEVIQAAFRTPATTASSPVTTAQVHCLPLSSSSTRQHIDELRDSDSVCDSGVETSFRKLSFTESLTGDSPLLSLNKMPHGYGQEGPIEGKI
# B1: TPL-2398-467 peptide: synthetic peptide corresponding to the C-terminal 70 amino acids of TPL-2 (peptide)
# peptide: CTSLDSALLERKRLLSRKELELPENIADSSCTGSTEESEMLKRQRSLYIDLGALAGYFNLVRGPPTLEYG
# B2: biotinylated TPL-2398-467 peptide (peptide)
# peptide: C(Biotin)TSLDSALLERKRLLSRKELELPENIADSSCTGSTEESEMLKRQRSLYIDLGALAGYFNLVRGPPTLEYG
# notes: Immobilized on a streptavidin-coated BIAcore sensor surface; also called TPL-2 peptide; TPL-2 C-terminus
# B3: COT(131-411) (enzyme, not shown: small tags and cut ends)
# chain: PWKLTYRNIGSDFIPRGAFGKVYLAQDIKTKKRMACKLIPVDQFKPSDVEIQACFRHENIAELYGAVLWGETVHLFMEAGEGGSVLEKLESCGPMREFEIIWVTKHVLKGLDFLHSKKVIHHDIKPSNIVFMSTKAVLVDFGLSVQMTEDVYFPKDLRGTEIYMSPEVILCRGHSTKADIYSLGATLIHMQTGTPPWVKRYPRSAYPSYLYIIHKQAPPLEDIADDCSPGMRELIEASLERNPNHRPRAADLLKHEALNPPREDQPRCTSLDSALLERKRL
# notes: also called TPL-2 (131-411)
# B4: endogenous TPL-2 (mouse 3T3 fibroblasts) (enzyme, UniProt Q07174 1-467, looked up)
# chain: MEYMSTGSDEKEEIDLLIKHLNVSEVIDIMENLYASEEPGVYEPSLMTMYPDSNQNEERSESLLRSGQEVPWLSSVRYGTVEDLLAFANHVSNMTKHFYGRRPQECGILLNMVISPQNGRYQIDSDVLLVPWKLTYRNIGSGFVPRGAFGKVYLAQDMKTKKRMACKLIPIDQFKPSDVEIQACFRHENIAELYGAVLWGDTVHLFMEAGEGGSVLEKLESCGPMREFEIIWVTKHILKGLDFLHSKKVIHHDIKPSNIVFMSTKAVLVDFGLSVKMTEDVYLPKDLRGTEIYMSPEVILCRGHSTKADIYSLGATLIHMQTGTPPWVKRYPRSAYPSYLYIIHKQAPPLEDIAGDCSPGMRELIEAALERNPNHRPKAADLLKHEALNPPREDQPRCQSLDSALFERKRLLSRKELQLPENIADSSCTGSTEESEVLRRQRSLYIDLGALAGYFNIVRGPPTLEYG
# B5: recombinant p105498-969 protein (other)
# chain: QDNLFLEKAMQLAKRHANALFDYAVTGDVKMLLAVQRHLTAVQDENGDSVLHLAIIHLHSQLVRDLLEVTSGLISDDIINMRNDLYQTPLHLAVITKQEDVVEDLLRAGADLSLLDRLGNSVLHLAAKEGHDKVLSILLKHKKAALLLDHPNGDGLNAIHLAMMSNSLPCLLLLVAAGADVNAQEQKSGRTALHLAVEHDNISLAGCLLLEGDAHVDSTTYDGTTPLHIAAGRGSTRLAALLKAAGADPLVENFEPLYDLDDSWENAGEDEGVVPGTTPLDMATSWQVFDILNGKPYEPEFTSDDLLAQGDMKQLAEDVKLQLYKLLEIPDPDKNWATLAQKLGLGILNNAFRLSPAPSKTLMDNYEVSGGTVRELVEALRQMGYTEAIEVIQAASSPVKTTSQAHSLPLSPASTRQQIDELRDSDSVCDSGVETSFRKLSFTESLTSGASLLTLNKMPHDYGQEGPLEGKI
# B6: recombinant p105808-892 protein (p105 DD) (other)
# chain: DMKQLAEDVKLQLYKLLEIPDPDKNWATLAQKLGLGILNNAFRLSPAPSKTLMDNYEVSGGTVRELVEALRQMGYTEAIEVIQAA
# Columns and labels:
# [1] = biological target: endogenous NF-κB1 p105 (HeLa, Jurkat and 293 cells) (UniProt P19838); experiment: cell-based or functional assay
# [2] = biological target: T4, Myc-TPL-2ΔC MEK kinase activity (Rattus norvegicus, UniProt Q63562); experiment: In vitro MEK kinase assay with GST-MEK1(K207A) substrate, Myc-TPL-2ΔC; type: biochemical
# T4 construct: TPL-2ΔC which lacks the C-terminal 70 amino acids; made in house; host or cells: HEK 293 cells, transient transfection, anti-Myc immunoprecipitation
# T4 sequence (Q63562 1-397, stated change not applied): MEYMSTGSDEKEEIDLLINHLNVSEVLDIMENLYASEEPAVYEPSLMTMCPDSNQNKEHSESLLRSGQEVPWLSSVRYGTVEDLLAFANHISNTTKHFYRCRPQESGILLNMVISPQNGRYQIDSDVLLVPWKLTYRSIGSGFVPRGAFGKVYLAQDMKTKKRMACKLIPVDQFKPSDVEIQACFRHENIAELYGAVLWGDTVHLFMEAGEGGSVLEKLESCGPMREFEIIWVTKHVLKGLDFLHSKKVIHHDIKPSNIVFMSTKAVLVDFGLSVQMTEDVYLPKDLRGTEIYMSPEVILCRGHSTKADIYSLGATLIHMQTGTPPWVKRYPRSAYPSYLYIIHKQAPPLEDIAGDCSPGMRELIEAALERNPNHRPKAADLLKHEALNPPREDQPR
# Protocol: Myc-TPL-2 or Myc-TPL-2ΔC were isolated by immunoprecipitation from lysates of transiently transfected 293 cells, as described above. immunoprecipitates were washed four times in Buffer A, followed by two washes in kinase buffer (50 mM Tris-pH7.5, 150 mM NaCl, 5 mM β-glycerophosphate, 2 mM dithiothreitol, 0.1 mM sodium vanadate, 10 mM MgCl2, 1 mM EGTA, 0.01% Brij35). Beads were then resuspended in 50μl of kinase buffer plus the indicated amounts of recombinant p105 protein and incubated at 4° C. for 30 min. […] The supernatant was removed, mixed with an equal volume of 2×sample buffer, Western blotted after 8%-acrylamide SDS-PAGE and probed with anti-phospho-MEK-½ antibody. Immunoprecipitated Myc-TPL-2 or Myc-TPL-2ΔC was eluted with Laemlli sample buffer from the remaining anti-Myc mAb beads and quantified by Western blotting.
# (5.6.c) The inhibition of TPL-2 MEK kinase activity by p 105498-969 may be more efficient than the isolated p105 DD as the former protein contains a binding site for the TPL-2 C-terminus. It was, therefore, interesting to determine the sensitivity of TPL2ΔC catalytic activity to inhibition by p105. The specific activity of Myc-TPL-2ΔC, isolated by immunoprecipitation from transfected 293 cell lysates, was modestly (approximately 2-3 fold) increased relative to wild type Myc-TPL-2.
# [3] = biological target: T1, recombinant p105 541-802; experiment: surface plasmon resonance (BIAcore), biotinylated peptide on streptavidin chip
# Protocol: Interaction between the TPL-2 C-terminus and recombinant p105 proteins was measured by surface plasmon resonance using the BIAcore system (BIAcore AB, Uppsala, Sweden; (Szabo, A., et al. (1995) Curr. Opin. Struct. biol. 5: 699-705)). The C-terminal 70 amino acids of TPL-2 (TPL-2₃₉₈₋₄₆₇) were synthesised as a biotinylated peptide (conjugated to the equivalent of Cys398 of full length TPL-2) and immobilized on a Streptavidin-coated sensor surface (Sensorchip SA, BIAcore AB). Recombinant p105 proteins were then injected at different concentrations and resonance signals monitored. Dissociation at 25° C. was measured by flushing the TPL-2/p105 complexes with HBS-P buffer (10 MM HEPES-pH7.4, 150 mM NaCl, 0.005% (v/v) polysorbate 20; BIAcore AB). Data were evaluated using BIAevaluation software, version 3.0.2.
# [4] = biological target: T2, HA-p105(369-969); experiment: co-expression in HEK293 cells, isolation of the complex from lysates
# [5] = biological target: T3, endogenous p105 (mouse 3T3 fibroblasts); experiment: anti-TPL-2 immunoprecipitation from lysates of wild type mouse 3T3 fibroblasts, Western blot
# Protocol: (5.5.c) To determine whether p105 regulates the steady-state levels of endogenous TPL-2 protein, cell lysates were prepared from 3T3 fibroblasts derived from wild type and NF-κB1-deficient mice. TPL-2 was readily detected by Western blotting of anti-TPL-2 immunoprecipitates from wild type fibroblasts and was associated with endogenous p105.
# [6] = biological target: Myc-TPL-2 (Homo sapiens (Human), UniProt P41279 1-467); experiment: cell-based or functional assay
# [7] = biological target: Myc-TPL-2ΔC (Homo sapiens (Human), UniProt P41279 1-397); experiment: cell-based or functional assay
# Chain of Myc-TPL-2ΔC (P41279 1-397, stated change not applied): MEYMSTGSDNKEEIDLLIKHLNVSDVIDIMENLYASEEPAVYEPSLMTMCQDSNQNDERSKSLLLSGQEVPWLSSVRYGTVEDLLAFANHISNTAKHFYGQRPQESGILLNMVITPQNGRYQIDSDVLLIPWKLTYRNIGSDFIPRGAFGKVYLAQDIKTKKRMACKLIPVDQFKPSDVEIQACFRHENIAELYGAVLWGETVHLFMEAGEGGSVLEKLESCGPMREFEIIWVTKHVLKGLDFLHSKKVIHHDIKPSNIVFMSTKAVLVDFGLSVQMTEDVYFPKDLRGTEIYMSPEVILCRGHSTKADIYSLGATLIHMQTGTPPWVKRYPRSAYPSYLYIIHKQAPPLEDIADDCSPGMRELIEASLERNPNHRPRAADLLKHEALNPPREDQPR
# [8] = biological target: T5, Myc-Raf1(CAAX) MEK kinase activity (Homo sapiens, UniProt P04049); experiment: In vitro MEK kinase assay, activated Raf1; type: biochemical
# T5 construct: CAAX membrane-targeting motif (C); made in house
molecule,measurement,setting,value
TPL-2ΔC (from UniProt P41279 1-397),NF-κB-dependent luciferase reporter gene in Jurkat T cells,[1],12 fold
B1,effect on TPL-2ΔC in vitro MEK kinase activity,[2],not found to affect
B2,binding result,[3],no binding
B3,binding result,[4],binds
B4,binding result,[5],binds
B5,IC50 of inhibition of TPL-2 MEK kinase activity (phosphorylation of GST-MEK1(K207A) in vitro),[6],90 nM
same,IC50 of inhibition of TPL-2ΔC MEK kinase activity in vitro,[7],1000 nM
same,effect on Myc-Raf1(CAAX) MEK kinase activity,[8],unaffected
B6,IC50 of inhibition of TPL-2 MEK kinase activity in vitro,[6],550 nM
same,effect on Myc-Raf1(CAAX) MEK kinase activity,[8],no effect
